From patent publication US20190177704A1, “MODIFIED LUCIFERASE” (RIKEN, priority 2016, published 2019)
Where a chain is given by its changes, count along the chain named. In names and notes the source's numbering stands.

B1: Luc2: luciferase derived from Photinus pyralis consisting of an amino acid sequence represented by SEQ ID NO: 1 (protein, listed as Photinus pyralis)
chain: MEDAKNIKKGPAPFYPLEDGTAGEQLHKAMKRYALVPGTIAFTDAHIEVDITYAEYFEMSVRLAEAMKRYGLNTNHRIVVCSENSLQFFMPVLGALFIGVAVAPANDIYNERELLNSMGISQPTVVFVSKKGLQKILNVQKKLPIIQKIIIMDSKTDYQGFQSMYTFVTSHLPPGFNEYDFVPESFDRDKTIALIMNSSGSTGLPKGVALPHRTACVRFSHARDPIFGNQIIPDTAILSVVPFHHGFGMFTTLGYLICGFRVVLMYRFEEELFLRSLQDYKIQSALLVPTLFSFFAKSTLIDKYDLSNLHEIASGGAPLSKEVGEAVAKRFHLPGIRQGYGLTETTSAILITPEGDDKPGAVGKVVPFFEAKVVDLDTGKTLGVNQRGELCVRGPMIMSGYVNNPEATNALIDKDGWLHSGDIAYWDEDEHFFIVDRLKSLIKYKGYQVAPAELESILLQHPNIFDAGVAGLPDDDAGELPAAVVVLEHGKTMTEKEIVDYVASQVTTAKKLRGGVVFVDEVPKGLTGKLDARKIREILIKAKKGGKIAV
B2: N229H_S347N: luc2 variant with N229H and S347N mutations (SEQ ID NO: 3) (protein)
chain: B1 chain with N229H, S347N
modifications: Modified Luciferase

What was measured:
Format in all cases: cell-based
[1] = Emission intensity of luciferase-expressing HeLa S3 cells with AkaLumine; details: for relative emission intensity, AKA: emission intensity of D-luciferin defined as 1
Protocol: (§1) A plasmid pcDNA3 was treated with use of BamHI and EcoRI, and genes encoding the respective luciferases above were each inserted into the plasmid pcDNA3 to produce plasmids for transfection.
(§2) HeLa S3 cells were used as mammalian cells to be transfected. For each of the luciferases above, HeLa S3 cells which had been cultured in D-MEM (low glucose, containing 10% FBS and 1% penicillin streptomycin, Wako Pure Chemical Industries, Ltd.) and were in an 80% confluent state were mixed with a transfection reagent (Polyethylenimine, Linear (MW 25,000, Polysciences, Inc)) and the plasmid for transfection (0.3 μg) to conduct transfection.
(§3) 24 hours after the transfection, the cells were dissociated through trypsinization, and were suspended in DMEM/F12 (10% FBS, gibco). Subsequently, centrifugation was conducted to remove the supernatant, and then the cells were resuspended in 1 mL DMEM/F12 so as to be used as luciferase-expressing cells.
(§4) In 1.5 mL Eppendorf tube, 20 μL of the produced luciferase-expressing cells and 80 μL of a substrate solution (prepared with pH 7.4 PBS) were mixed, and light emission from the obtained mixture was measured for one minute (with use of a luminometer AB-2280 manufactured by ATTO Corporation). An integrated value of the values thus measured within one minute was defined as the emission intensity.
(§5) As the substrate solution, AkaLumine or D-luciferin (80 μM each) was added. Results of the measurement of emission intensity are shown below in Table 2 as relative values with respect to 1.0 which is an emission intensity obtained in a case where AkaLumine was added to a sample of luc2.
(§6) Subsequently, with use of D-luciferin, AkaLumine, AkaLumine-OH, 6-AkaLumine, 0-AkaLumine, monoene NMe2, monoene NH2, monoene OH, and biphenyl as substrates, specificity to each of these substrates was evaluated. The substrates are respectively represented by the following chemical formulae. Each substrate solution contains a single kind of substrate.
(§7) Tables 3 through 8 show results of relative emission intensities in a case where the emission intensity of D-luciferin is defined as 1.

[2] = Emission intensity of luciferase-expressing HeLa S3 cells with D-luciferin; details: for relative emission intensity, Dluc: emission intensity of D-luciferin defined as 1
Protocol: as §1, §2, §3, §4, §5, §6, §7

[3] = Emission intensity of luciferase-expressing HeLa S3 cells with AkaLumine-OH; details: emission intensity of D-luciferin defined as 1
Protocol: as §1, §2, §3, §4, §6, §7

[4] = Emission intensity of luciferase-expressing HeLa S3 cells with 6-AkaLumine; details: emission intensity of D-luciferin defined as 1
Protocol: as §1, §2, §3, §4, §6, §7

[5] = Emission intensity of luciferase-expressing HeLa S3 cells with 0-AkaLumine; details: emission intensity of D-luciferin defined as 1
Protocol: as §1, §2, §3, §4, §6, §7

[6] = Emission intensity of luciferase-expressing HeLa S3 cells with monoene NMe2; details: emission intensity of D-luciferin defined as 1
Protocol: as §1, §2, §3, §4, §6, §7

[7] = Emission intensity of luciferase-expressing HeLa S3 cells with monoene NH2; details: emission intensity of D-luciferin defined as 1
Protocol: as §1, §2, §3, §4, §6, §7

[8] = Emission intensity of luciferase-expressing HeLa S3 cells with monoene OH; details: emission intensity of D-luciferin defined as 1
Protocol: as §1, §2, §3, §4, §6, §7

[9] = Emission intensity of luciferase-expressing HeLa S3 cells with biphenyl; details: emission intensity of D-luciferin defined as 1
Protocol: as §1, §2, §3, §4, §6, §7

Molecule	relative emission intensity, AKA ([1]; HeLa S3 cells)	AkaLumine/D-luciferin ([1]; ratio of relative emission intensities, Table 2)	AkaLumine emission intensity, relative value ([1]; relative to 1.0 = emission intensity of luc2 with AkaLumine, 80 μM substrate, integrated over one minute, HeLa S3 cells)	relative emission intensity, Dluc [2]	D-luciferin emission intensity, relative value ([2]; relative to 1.0 = emission intensity of luc2 with AkaLumine, 80 μM substrate, integrated over one minute)	relative emission intensity, AKA-OH [3]	relative emission intensity, 6-AKA [4]	relative emission intensity, O-AKA [5]	relative emission intensity, monoNMe2 [6]	relative emission intensity, monoNH2 [7]	relative emission intensity, monoOH [8]	relative emission intensity, biph [9]
B1	2.6 × 10^−1	1.8	1.0	1.0	5.5 × 10^−1	not detected	1.6 × 10^−1	8.4 × 10^−3	1.1 × 10^−1	3.0 × 10^−3	1.8 × 10^−3	1.4 × 10^−2
B2	1.7 × 10^3	–	–	1.0	–	0.9	8.5 × 10^2	6.3	–	4.3 × 10^−1	not detected	4.9
